Measured values as given in paper PMC4172472.

Target: vitronectin (UniProt P04004)
UniProt P04004, sequence (P04004 20-478): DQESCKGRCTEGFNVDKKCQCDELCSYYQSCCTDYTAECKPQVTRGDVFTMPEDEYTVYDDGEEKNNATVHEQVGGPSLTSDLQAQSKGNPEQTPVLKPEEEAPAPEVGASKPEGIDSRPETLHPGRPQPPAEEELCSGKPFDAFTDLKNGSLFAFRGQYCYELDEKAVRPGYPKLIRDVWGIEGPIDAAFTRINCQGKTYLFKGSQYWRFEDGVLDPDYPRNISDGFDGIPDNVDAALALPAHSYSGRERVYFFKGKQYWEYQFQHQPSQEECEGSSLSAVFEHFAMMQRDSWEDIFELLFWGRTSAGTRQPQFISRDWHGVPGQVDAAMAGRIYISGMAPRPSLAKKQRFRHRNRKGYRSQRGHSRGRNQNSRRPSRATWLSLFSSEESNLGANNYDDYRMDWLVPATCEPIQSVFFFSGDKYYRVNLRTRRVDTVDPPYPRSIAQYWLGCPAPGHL

“αvβ3 integrin (from UniProt P06756 31-1048; P05106 27-788) (receptor)” was tested. Which detachment of adherent WM266 cells from vitronectin-coated plates by the anti-αvβ3 antibody LM609 (10 µg/mL), 2 h did it give?
The detachment of adherent WM266 cells from vitronectin-coated plates by the anti-αvβ3 antibody LM609 (10 µg/mL), 2 h was 50%.
